Measurements published in PMC12241658.
Where “and” joins values, the source holds several entries; their conditions need not be identical. Equal values may be shown once.

What was measured:
[1] = target: recombinant human αβ hemoglobin (αβHb dimer) (human) (UniProt P69905); test: BLI
[2] = target: recombinant human αβ hemoglobin, 6x His tag on the N-terminus of the α subunit (αβHb dimer) (human) (UniProt P69905); test: BLI
[3] = target: recombinant human adult hemoglobin (αβHb), αβ dimer (human) (UniProt P69905); test: BLI

Question: Which results are given for ChuA (receptor)?
Answer: koff [1]: 0.0574 s⁻¹ and 0.0531 s⁻¹; kon [1]: 144000 M⁻¹ s⁻¹ and 118000 M⁻¹ s⁻¹

Question: For “ChuA (outer membrane heme transporter, TonB-dependent transporter) from E. coli CFT073 (receptor)”, which koff [2] is on record?
Answer: 0.0574 s⁻¹ and 0.0449 s⁻¹ and 0.0512 s⁻¹

Question: What about the kon [2] of the same molecule?
Answer: 158000 M⁻¹ s⁻¹ and 144000 M⁻¹ s⁻¹ and 173000 M⁻¹ s⁻¹

Question: For “ChuA, outer membrane TonB-dependent heme/hemoglobin transporter of E. coli CFT073 (receptor)”, which Kd [3] is on record?
Answer: 71.5 nM

B1: recombinant human myoglobin (natural protein)
chain: MGLSDGEWQLVLNVWGKVEADIPGHGQEVLIRLFKGHPETLEKFDKFKHLKSEDEMKASEDLKKHGATVLTALGGILKKKGHHEAEIKPLAQSHATKHKIPVKYLEFISECIIQVLQSKHPGDFGADAQGAMNKALELFRKDMASNYKELGFQG
Question: For B1, which EC50 of the growth of E. coli ΔTBDT:ChuOP in LB liquid medium with 200 µM 2,2'-bipyridine, supplemented with serially diluted myoglobin (nonlinear regression, three parameters) (ChuA (E. coli CFT073)) is on record?
Answer: 24200 nM

B2: recombinant human neuroglobin (natural protein)
chain: MERPEPELIRQSWRAVSRSPLEHGTVLFARLFALEPDLLPLFQYNCRQFSSPEDCLSSPEFLDHIRKVMLVIDAAVTNVEDLSSLEEYLASLGRKHRAVGVKLSSFSTVGESLLYMLEKCLGPAFTPATRAAWSQLYGAVVQAMSRGWDGE
Question: How did the EC50 of the growth of E. coli ΔTBDT:ChuOP in LB liquid medium with 200 µM 2,2'-bipyridine, supplemented with serially diluted neuroglobin (nonlinear regression, three parameters) (ChuA (E. coli CFT073)) turn out when B2 was run?
Answer: 826 nM
